Data taken from patent US20110207132.

Test system: BfuCI restriction endonuclease
Assay: cleavage_in_vitro
Conditions: for binding signal (signal/no-template): after 25 min
[1] = phosphorothioate 5' of GATC in probe B
[2] = phosphorothioate 5' of GATC in probe B, JP3 cleaved greater than four times faster

AGAGTCCACCAAGCTTCAGATTAG / TCTGAAGCTTTGATC / AAAAGATCAAATTGGTGGACTCTAAAA [JP3]
activity (phosphorothioate 5' of GATC in probe B, average rate first 5 min, 7-fold signal enhancement over JP2): 0.9 nM/min

AGAGTCCACCAAGCTTCAGATTAG / TCTGAAGCTTTGATC / AAAAGATCAAATTGGTGGACTCTAAAA [JP4]
binding signal (phosphorodithioate 5' of GATC in probe B, fluorescence enhancement): 3 fold vs JP2

AGAGTCCACCAAGCTTCAGATTAG / TCTGAAGCTTTGATC / AAAAGATCAAATTGGTGGACTCTAAAA [T1/A/B junction probe (JP2)]
binding signal (fold vs no template) (NEBuffer 4, 10 mM Mg, 30 C, 5 h): 60

AGAGTCCACCAAGCTTCAGATTAG / TCTGAAGCTTTGATC / AGTAACGGAAAACCGTTACTAAAAGATCAAATTGGTGGACTCT [JP10]
binding signal (signal/no-template) [1]: 4.7

AGAGTCCACCAAGCTTCAGATTAG / TCTGAAGCTTTGATC / AGTAACGGAAAACCGTTACTAAAAGATCAATTTGGTGGACTCT [JP13]
binding signal (signal/no-template) [1]: 13.5

AGAGTCCACCAAGCTTCAGATTAG / TCTGAAGCTTTGATC / AGTAACGGAAAACCGTTACTAAAAGATCATATTGGTGGACTCT [JP14]
binding signal (signal/no-template) [1]: 9

AGAGTCCACCAAGCTTCAGATTAG / TCTGAAGCTTTGATC / CCCCGATCAAATTGGTGGACTCTAAAA [JP8]
binding signal [2]: < 0.25 fold vs JP3

AGAGTCCACCAAGCTTCAGATTAG / TCTGAAGCTTTGATC / GGGGGATCAAATTGGTGGACTCTAAAA [JP7]
binding signal [2]: < 0.25 fold vs JP3

AGAGTCCACCAAGCTTCAGATTAG / TCTGAAGCTTTGATC / TGGATCGGAAAACCGATCCAGATCATATTGGTGGACTCT [JP18]
activity (phosphorothioate 5' of each GATC in probe B, initial rate, NEBuffer 4, 10 mM Mg, 30 C): 82 nM/min

AGAGTCCACCAAGCTTCAGATTAG / TCTGAAGCTTTGATC / TGTAACGGAAAACCGTTACAGATCAAATTGGTGGACTCT [JP12]
activity (phosphorothioate 5' of GATC in probe B, average rate first 5 min, 30 C): 39 nM/min

AGAGTCCACCAAGCTTCAGATTAG / TCTGAAGCTTTGATC / TGTAACGGAAAACCGTTACAGATCATATTGGTGGACTCT [JP16]
activity (phosphorothioate 5' of GATC in probe B, initial rate, 30 C): 43 nM/min

AGAGTCCACCAAGCTTCAGATTAG / TCTGAAGCTTTGATC / TTTTGATCAAATTGGTGGACTCTAAAA [JP9]
binding signal [2]: < 0.25 fold vs JP3
